In PMC2801285:

Biological target: CaV2.1 (full-length) (UniProt P54282)

Substance | reduction of peak IBa (CaV2.1/α2δ-2/β4) on co-expression in Xenopus oocytes [% reduction] | inhibition of peak IBa (CaV2.1/α2δ-2/β4) on co-expression in Xenopus oocytes [% inhibition]
CaV2.1 N terminus-CAAX (from UniProt P54282 1-100) (domain or fragment) | 43.8 | –
CaV2.1 N terminus (residues 1–100) (from UniProt P54282 1-100) (domain or fragment) | – | 37.9
